Reference: patent publication US12371675B2, “Process and microorganism for synthesis of adipic acid from carboxylic acids” (THE GOVERNING COUNCIL OF THE UNIVERSITY OF TORONTO, priority 2015, dated 2025)

Key:
[1] = Whole-cell anaerobic biotransformation by E. coli expressing EREDs; assay type: cell-based; conditions: 20 mM 2-hexenedioic acid
[2] = OYE hydrogenation activity screen, NADPH oxidation at 340 nm; assay type: biochemical; conditions: 1 mM substrate, 0.25 mM NADPH, 2.5 μg protein; cut-off 0.05 U/mg protein; ND = not detected
Procedure: 25 putative OYE genes (Table 1) were cloned based on the Pfam domain of the FMN oxidoreductase family PF00724. Purified OYEs were screened for hydrogenation activity against acrolein, 2-cyclohexn-1-one, cis,cis-muconic acid, trans,trans-muconic acid, and 2-hexendioic acid. Substrate specificity was measured spectrophotometrically in 96-well plates by following incubation for 20 min at room temperature in the anaerobic chamber. Buffers and reagents were also degassed and sparged with Ar. Reaction mixtures contained potassium phosphate (50 mM and pH 7.0), NaCl (10 mM), NADPH (0.25 mM), various substrates (1 mM) and protein (2.5 μg) in a final volume of 200 μL. Enzyme reactions were monitored by following the decrease in absorbance at 340 nm (ε340 nm=6,200/M·cm) as a measure of the conversion of the cofactor NADPH to NADP+.

[3] = Whole-cell biotransformation with E. coli strains over-expressing OYEs; assay type: cell-based; conditions: E. coli over-expressing OYE
[4] = CAR reductase activity, NADPH oxidation at 340 nm; assay type: biochemical; conditions: ND = no activity was detected
Procedure: Reductase activity was measured spectrophotometrically by following the oxidation of NADPH depletion at 340 nm.
It has been shown that the N. iowensis CAR has a broad substrate range, though its maximal activity was usually observed with aromatic substrates such as benzoic and cinnamic acids. CARs gene sequences homologues to the N. iowensis CAR (Uniprot number: Q6RKB1), were selected from GenBank database. Based on presence of adenylation (AMP-binding PF00501) and reduction (NAD-binding PF07993) domains accompanied with phosphopantetheinyl binding motif (PF00530) 13 CAR genes (mostly from Mycobacterium) were cloned and expressed in E. coli. (Table 4). As CAR activation enzymes, phosphopantetheinyl transferases (PPTs) from E. coli (P19925) and Bacillus subtilis (P39135), were used which were co-expressed with the selected CAR genes from a separate plasmid. Using 1-liter E. coli cultures with overnight induction by IPTG, 12 soluble CAR proteins were purified using affinity chromatography on a Ni-NTA resin.

[5] = In vitro biotransformation by CARs coupled with aldehyde reductase PP_3370; assay type: biochemical; conditions: Table 12 title: 10 mM adipic acid (12 h) in vitro, CARs coupled with PP3370
[6] = as above; assay type: biochemical; conditions: Table 12 title: 10 mM 4-hydroxybutyric acid (12 h) in vitro, CARs coupled with PP3370
[7] = In vivo whole cell biotransformation by E. coli expressing CARs; assay type: cell-based; conditions: 24 h
Procedure: E. coli cells expressing recombinant CARs with BSU03570 phosphopantetheinyl transferase were grown on LB media with […], supplemented with 2% glycerol aerobically on 37° C., until the culture optical density (OD 600 nm) reached 0.6-0.8. At this point protein expression was induced with 0.4 mM IPTG and substrate (adipic acid or 4-hydroxybutyric acid) for final 10 mM concentration was added. Samples were taken at 6 h, 24 h and 48 h, centrifuged, supernatant was filtered through 10 kDa centrifugal filters. Products were analyzed with HPLC or LC-MS. Negative control experiments were performed using E. coli cells harboring empty plasmids. All results of in vivo experiments are means from at least two independent determinations.

B1: EREDCT: 2-enoate reductase (ERED) from Clostridium tyrobutyricum (protein)
chain: MKNKSLFEPIKIGKVEVKNKISMAPMGAFGLVDNEGCYNQRAVDYYVERAKGGTGLIITSITKVENEIDKVVPGVIPIISINPGRFIMTSSEMTERVHSYGSKIFLQLTMGFGRSGAPGTLLTSQPVSASSVPNYWDPTVTCRELTTSEVEWIVAKFIQGAAIAQKAGFDGVEIHAVHEGYLLDQFTLSIFNRRTDKYGGDLRGRLQLPIEIVQGIKAQVGSDFPVGLRYSVKSCIKDWRQGGLPDEDYVEKGRDLKEGLESAKILEAAGYDELNTDVGTYDAWYWSHPPLYQKDGLYLPYTKELKKVVKIPVIVAGKLGVPQEAEKALDEGGADMIGLARPLLSDAYWPKKVLSGHPERIRPCIGCHVGCLGRGFEGKPLSCAVNPAAGRERYYEIRPAAIPKKVLIAGGGVAGMEAARMAVLRGHKVTLYESTDQLGGEIVPGSVPDFKIDDRRLLDWYRNEMKELKINVIFNTEVTDKLVGKEQPDVVIVATGANDVKIKLPGIEKDKVSTAVDILNGAKKSGKNVLIVGGGLVGCETALYLAKAGKKVAIVEAKDKILDAGKPIPHMNKIMLEDLIKKYNIKVITGNSLLEVTGDGAVLIDNKFKQQEVYADTIVISIGFKSNRKLYNKLHGKVTDLYLIGDAYQTANIMDAIWSGNEIGLNC
For B1, the “production of adipic acid” value [1] was “inactivity”.

B2: YST4373: OYE protein from Saccharomyces cerevisiae (protein)
chain: MPFVKDFKPQALGDTNLFKPIKIGNNELLHRAVIPPLTRMRAQHPGNIPNRDWAVEYYAQRAQRPGTLIITEGTFPSPQSGGYDNAPGIWSEEQIKEWTKIFKAIHENKSFAWVQLWVLGWAAFPDTLARDGLRYDSASDNVYMNAEQEEKAKKANNPQHSITKDEIKQYVKEYVQAAKNSIAAGADGVEIHSANGYLLNQFLDPHSNNRTDEYGGSIENRARFTLEVVDAVVDAIGPEKVGLRLSPYGVFNSMSGGAETGIVAQYAYVLGELERRAKAGKRLAFVHLVEPRVTNPFLTEGEGEYNGGSNKFAYSIWKGPIIRAGNFALHPEVVREEVKDPRTLIGYGRFFISNPDLVDRLEKGLPLNKYDRDTFYKMSAEGYIDYPTYEEALKLGWDKN
With B2 the “Activity [U/mg protein] 2-cyclohexen-1-one” value [2] was 0.23 U/mg protein, the “Activity [U/mg protein] acrolein” value [2] was 0.17 U/mg protein and the “hydrogenation of 2-hexenedioic acid into adipic acid” value (“hydrogenation” below) [3] was “no hydrogenation”.

B3: MSMEI_5586: carboxylate reductase (CAR) from M. smegmatis ATCC 700084 (protein)
chain: MHQLTVTGMNICEVQRLFPRMTSDVHDATDGVTETALDDEQSTRRIAELYATDPEFAAAAPLPAVVDAAHKPGLRLAEILQTLFTGYGDRPALGYRARELATDEGGRTVTRLLPRFDTLTYAQVWSRVQAVAAALRHNFAQPIYPGDAVATIGFASPDYLTLDLVCAYLGLVSVPLQHNAPVSRLAPILAEVEPRILTVSAEYLDLAVESVRDVNSVSQLVVFDHHPEVDDHRDALARAREQLAGKGIAVTTLDAIADEGAGLPAEPIYTADHDQRLAMILYTSGSTGAPKGAMYTEAMVARLWTMSFITGDPTPVINVNFMPLNHLGGRIPISTAVQNGGTSYFVPESDMSTLFEDLALVRPTELGLVPRVADMLYQHHLATVDRLVTQGADELTAEKQAGAELREQVLGGRVITGFVSTAPLAAEMRAFLDITLGAHIVDGYGLTETGAVTRDGVIVRPPVIDYKLIDVPELGYFSTDKPYPRGELLVRSQTLTPGYYKRPEVTASVFDRDGYYHTGDVMAETAPDHLVYVDRRNNVLKLAQGEFVAVANLEAVFSGAALVRQIFVYGNSERSFLLAVVVPTPEALEQYDPAALKAALADSLQRTARDAELQSYEVPADFIVETEPFSAANGLLSGVGKLLRPNLKDRYGQRLEQMYADIAATQANQLRELRRAAATQPVIDTLTQAAATILGTGSEVASDAHFTDLGGDSLSALTLSNLLSDFFGFEVPVGTIVNPATNLAQLAQHIEAQRTAGDRRPSFTTVHGADATEIRASELTLDKFIDAETLRAAPGLPKVTTEPRTVLLSGANGWLGRFLTLQWLERLAPVGGTLITIVRGRDDAAARARLTQAYDTDPELSRRFAELADRHLRVVAGDIGDPNLGLTPEIWHRLAAEVDLVVHPAALVNHVLPYRQLFGPNVVGTAEVIKLALTERIKPVTYLSTVSVAMGIPDFEEDGDIRTVSPVRPLDGGYANGYGNSKWAGEVLLREAHDLCGLPVATFRSDMILAHPRYRGQVNVPDMFTRLLLSLLITGVAPRSFYIGDGERPRAHYPGLTVDFVAEAVTTLGAQQREGYVSYDVMNPHDDGISLDVFVDWLIRAGHPIDRVDDYDDWVRRFETALTALPEKRRAQTVLPLLHAFRAPQAPLRGAPEPTEVFHAAVRTAKVGPGDIPHLDEALIDKYIRDLREFGLI
In the case of B3, the “Activity [U/mg protein] 4-hydroxybutyric acid, 5 mM” value [4] is reported as 0.058 ± 0.033 U/mg protein, the “Activity [U/mg protein] adipic acid, 5 mM” value [4] is reported as 0.017 ± 0.005 U/mg protein and the “In vitro conversion efficiency % to: 1,6-hexanediol” value [5] is reported as 10.2 ± 3.4%. The “In vitro conversion efficiency % to: 6-hydroxyhexanoic acid” value [5] was 30.3 ± 0.4%, the “In vivo conversion efficiency (%) to: 1,4-butanediol” value [6] was 78.4 ± 6.2% and the “In vivo conversion efficiency (%) to: 1,4-butanediol” value ([7]; 10 mM 4-hydroxybutyric acid) was 78.4 ± 6.2%. The “In vivo conversion efficiency (%) to: 1,6-hexanediol” value ([7]; 10 mM adipic acid) was 10.2 ± 3.4% and the “In vivo conversion efficiency (%) to: 6-hydroxyhexanoic acid” value ([7]; 10 mM adipic acid) was 30.3 ± 0.4%.

B4: EC5625: OYE protein from Escherichia coli K12 (protein)
chain: MSSEKLYSPLKVGAITAANRIFMAPLTRLRSIEPGDIPTPLMAEYYRQRASAGLIISEATQISAQAKGYAGAPGIHSPEQIAAWKKITAGVHAENGHMAVQLWHTGRISHASLQPGGQAPVAPSALSAGTRTSLRDENGQAIRVETSMPRALELEEIPGIVNDFRQAIANAREAGFDLVELHSAHGYLLHQFLSPSSNHRTDQYGGSVENRARLVLEVVDAGIEEWGADRIGIRVSPIGTFQNTDNGPNEEADALYLIEQLGKRGIAYLHMSEPDWAGGEPYTDAFREKVRARFHGPIIGAGAYTVEKAETLIGKGLIDAVAFGRDWIANPDLVARLQRKAELNPQRAESFYGGGAEGYTDYPTL
In the case of B4, the “Activity [U/mg protein] 2-cyclohexen-1-one” value [2] is reported as 0.18 U/mg protein and the “hydrogenation” value [3] is reported as “no hydrogenation”.

B5: BSU2381: OYE protein from Bacillus subtilis subsp. subtilis str. 168 (protein)
chain: MARKLFTPITIKDMTLKNRIVMSPMCMYSSHEKDGKLTPFHMAHYISRAIGQVGLIIVEASAVNPQGRITDQDLGIWSDEHIEGFAKLTEQVKEQGSKIGIQLAHAGRKAELEGDIFAPSAIAFDEQSATPVEMSAEKVKETVQEFKQAAARAKEAGFDVIEIHAAHGYLIHEFLSPLSNHRTDEYGGSPENRYRFLREIIDEVKQVWDGPLFVRVSASDYTDKGLDIADHIGFAKWMKEQGVDLIDCSSGALVHADINVFPGYQVSFAEKIREQADMATGAVGMITDGSMAEEILQNGRADLIFIGRELLRDPFFARTAAKQLNTEIPAPVQYERGW
In the case of B5, the “Activity [U/mg protein] 2-cyclohexen-1-one” value [2] is reported as 0.21 U/mg protein and the “hydrogenation” value [3] is reported as “no hydrogenation”.
